Source: PMC8993221, “Agl24 is an ancient archaeal homolog of the eukaryotic N-glycan chitobiose synthesis enzymes” (eLife, 2022)

Substrate: CC(=O)N[C@H]1[C@@H](OP(=O)(O)OP(=O)(O)OC[C@H]2O[C@@H](n3ccc(=O)[nH]c3=O)[C@H](O)[C@@H]2O)O[C@H](CO)[C@@H](O)[C@@H]1O
Test: purified protein
Format: biochemical, Sulfolobus acidocaldarius
Details: 0.5 mM acceptor-2 (phenyl-O-C11H22-PP-GlcNAc), TBS with 5 mM MgCl2, pH 7.5, 60 °C, 10 hr, UDP-GlcNAc 0.5-12 mM

B1: Agl24 (Saci1262) (Sulfolobus acidocaldarius DSM 639) (protein)
chain: MIDNPLLIIASGGGHTGFARAIAEYLPFKPDFVIPENDRFSKDMLLDYARKLYYVKKGKDPGQGNIVLMRNFLKIIIESGKIPKYLATIATGSNHSLIPAMFQKIKGSALYVTESQDRIITRGKTVSVLSKFSRHVFLHWNEQKGLYDNGVVVGPIVEKPKYKSENKGYILVTTGSMGFKKLFDSLLNLRGNYKFVIQTGKVDPTPYIEKKPDWSFFSFDKDIERYIANAELVITHQGKTAMESVVMYGKPTIIVYNKDWKSATTKQDTILYSKILGATFLDDPSTWDSIKVLEDSIQNVRKPNQFEIGTPKLIDIILSELAEFLRE
notes: full length (327 residues), C-terminal TEV site-GFP-His8 fusion (pWaldo, plasmid pHD0499), tags kept; E. coli BL21 membranes, DDM-solubilised, Ni purified
Km: 1370 ± 130 µM
